Experimental findings from publication PMC10419456 are described below.

The target of the assay is LC3 (microtubule-associated protein 1 light chain 3), endogenous (mouse (endogenous in mouse brain and cultured mouse neurons)) (UniProt Q91VR7). In words: proximity ligation; cultured mouse cortical and cerebellar neurons (wild-type, L1_(687) and L1_(858–863) mutant), without or with L1 antibody 557 (50 µg/mL, 2 h) and without or with tat-LIRWT peptide; fixed, Duolink PLA with mouse L1 antibody C-2 and rabbit LC3 antibody; red spots per cell.

As to “full-length L1 (neural cell adhesion molecule L1) (from UniProt P11627 20-1260) (natural protein)”, the fold increase of L1/LC3 proximity ligation spots with L1 antibody 557 against unstimulated neurons came out at 4 fold.
